The values below are quoted from earlier work in PMC4741374.

In one data set the target is GM-CSFR (Homo sapiens) (UniProt P15509).
A further data set has as its target G-CSFR (Homo sapiens) (UniProt Q99062).
Sequence of UniProt Q99062 (Q99062 25-627): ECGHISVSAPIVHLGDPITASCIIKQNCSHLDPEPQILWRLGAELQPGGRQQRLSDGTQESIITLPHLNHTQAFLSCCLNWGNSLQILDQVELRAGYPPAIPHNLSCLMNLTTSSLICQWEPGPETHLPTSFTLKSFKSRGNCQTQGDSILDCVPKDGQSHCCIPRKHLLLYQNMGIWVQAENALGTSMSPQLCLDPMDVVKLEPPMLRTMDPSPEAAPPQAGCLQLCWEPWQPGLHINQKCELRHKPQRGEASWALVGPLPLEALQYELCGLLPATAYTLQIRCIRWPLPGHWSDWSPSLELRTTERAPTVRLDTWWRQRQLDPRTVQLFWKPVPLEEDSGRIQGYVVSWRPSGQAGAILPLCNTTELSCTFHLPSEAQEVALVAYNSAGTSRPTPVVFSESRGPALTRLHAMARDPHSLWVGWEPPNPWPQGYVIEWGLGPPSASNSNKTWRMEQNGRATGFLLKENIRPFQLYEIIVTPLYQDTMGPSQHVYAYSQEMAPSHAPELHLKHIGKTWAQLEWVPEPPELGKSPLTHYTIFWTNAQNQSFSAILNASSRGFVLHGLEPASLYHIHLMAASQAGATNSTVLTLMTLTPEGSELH

Sequence of UniProt P15509 (P15509 23-320, chain 1 of 2): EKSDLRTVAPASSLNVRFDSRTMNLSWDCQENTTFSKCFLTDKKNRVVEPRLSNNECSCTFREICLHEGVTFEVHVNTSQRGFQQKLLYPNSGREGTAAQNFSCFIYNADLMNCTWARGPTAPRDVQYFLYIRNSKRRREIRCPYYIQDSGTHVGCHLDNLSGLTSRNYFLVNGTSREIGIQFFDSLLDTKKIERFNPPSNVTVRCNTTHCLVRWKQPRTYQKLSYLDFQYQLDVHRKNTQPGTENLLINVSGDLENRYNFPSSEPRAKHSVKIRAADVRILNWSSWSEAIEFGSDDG
Sequence of UniProt P15509 (P32927 17-443, chain 2 of 2, further chain): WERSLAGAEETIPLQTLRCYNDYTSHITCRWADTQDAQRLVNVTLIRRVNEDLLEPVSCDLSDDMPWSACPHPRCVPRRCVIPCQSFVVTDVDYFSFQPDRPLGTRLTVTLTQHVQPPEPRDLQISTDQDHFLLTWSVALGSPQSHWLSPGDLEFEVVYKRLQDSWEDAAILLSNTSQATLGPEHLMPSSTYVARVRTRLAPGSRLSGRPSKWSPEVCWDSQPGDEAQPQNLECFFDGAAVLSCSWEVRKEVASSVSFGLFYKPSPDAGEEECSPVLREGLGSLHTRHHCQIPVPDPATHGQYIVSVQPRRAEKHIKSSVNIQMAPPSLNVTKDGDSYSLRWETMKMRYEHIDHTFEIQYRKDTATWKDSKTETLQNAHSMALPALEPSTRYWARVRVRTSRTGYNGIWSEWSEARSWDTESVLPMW

For orientation: Kd means the concentration at which binding is half-saturated. As for GM-CSF (from UniProt P04141), the Kd in the data set with GM-CSFR (Homo sapiens) was 0.1 nM. As to G-CSF (from UniProt P09919), the equilibrium dissociation constant (Kd) in the data set with G-CSFR (Homo sapiens) is 0.5 nM.
